T1: soluble rat CD4 (rat, UniProt P05540 28-394, limits assumed)
T1 sequence (looked up): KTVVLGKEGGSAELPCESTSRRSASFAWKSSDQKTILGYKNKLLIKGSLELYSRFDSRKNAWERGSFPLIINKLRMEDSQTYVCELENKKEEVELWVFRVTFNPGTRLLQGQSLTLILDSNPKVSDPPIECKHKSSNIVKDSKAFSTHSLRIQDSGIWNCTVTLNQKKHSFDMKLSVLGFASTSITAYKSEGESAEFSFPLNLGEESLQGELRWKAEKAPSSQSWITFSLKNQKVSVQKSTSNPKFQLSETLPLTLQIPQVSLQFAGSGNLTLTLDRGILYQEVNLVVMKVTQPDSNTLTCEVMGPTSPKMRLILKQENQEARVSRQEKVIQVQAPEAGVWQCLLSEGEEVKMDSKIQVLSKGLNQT


Key:
[1] = target: T2, hSIRP-Fc (extracellular region of human SIRPα fused to the Fc region of human IgG) (human, UniProt P78324 31-373); test: BIAcore, 37° C; 18.3 µM hCD47-CD4d3+4 over hSIRP-Fc at 3000 RU, exponential decay fitting
T2 construct: extracellular domain; also called human SIRP-Fc; dimeric hSIRP-Fc; not shown: human IgG Fc from vector pIg PLUS (R&D Systems)
Protocol: (§1) FIG. 5. Affinity and dissociation rate of soluble human CD47-CD4d3+4 binding to human SIRP-Fc. (A) Soluble monomeric hCD47-CD4d3+4 was injected at the indicated concentrations in 1 μM through flowcells immobilised hSIRP-Fc (6525 RU) (solid line), or as a negative control CTLA-4-Fc (6290 RU) (dotted line) at 37° C. (B) the difference between the response between the response at equilibrium in the hSIRP-Fc flowcell and the control flow cell is plotted against the hCD47-CD4d3+4 concentration. A kd=8.5 μM and maximal binding of 1400 RU were calculated by non linear curve fitting of the Langmuir isotherm (line) to data (circles) from A with negative control subtracted. […] (C) Soluble hCD47 (18.3 μM) was injected over immobilised hSIRP-Fc immobilised at high (6500 RU) (filled circles) and low (3000) levels (filled up triangles), and hCTLA-4-Fc (6290 RU) (filled down triangles). Values for koff=1.6 s⁻¹ for hSIRP-Fc high, 2.1 s⁻¹ hSIRP-Fc low and 7.0 s⁻¹ for hCTLA-4-Fc were calculated by exponential decay curve fitting (line) to dissociation data (symbols).
(§2) BIAcore analysis was carried out using a BIAcore™ 2000 biosensor instrument (Biacore AB) as previously described (Brown et al., (1998) J. Exp. Med. 188:2083-90, van der Merwe, et al., (1994) Biochemistry 33:101489-60) using CM5 research grade chips. […]

[2] = target: T2, hSIRP-Fc (extracellular region of human …); test: BIAcore, 37° C; lower bound because of rebinding
Protocol: (§3) (C) Soluble hCD47 (18.3 μM) was injected over immobilised hSIRP-Fc immobilised at high (6500 RU) (filled circles) and low (3000) levels (filled up triangles), and hCTLA-4-Fc (6290 RU) (filled down triangles). Values for koff=1.6 s⁻¹ for hSIRP-Fc high, 2.1 s⁻¹ hSIRP-Fc low and 7.0 s⁻¹ for hCTLA-4-Fc were calculated by exponential decay curve fitting (line) to dissociation data (symbols).
(§4) BIAcore analysis was carried out using a BIAcore™ 2000 biosensor instrument (Biacore AB) as previously described (Brown et al., (1998) J. Exp. Med. 188:2083-90, van der Merwe, et al., (1994) Biochemistry 33:101489-60) using CM5 research grade chips. […] For equilibrium binding increasing and decreasing concentrations of monomeric hCD47-CD4d3+4 were passed over hSIRP-Fc (6500 RU). For kinetic measurements hCD47-CD4d3+4 (18.30 μM) was passed over hSIRP-Fc immobilised at 6500 RU and 3000 RU and a control, CTLA4-Fc (6300 RU). CD47mAb blocking and V-SIRP-CD4d3+4 binding experiments were carried out at 10 and 5 μl/min respectively at 25° C.
(§5) To measure the affinity of the interaction hSIRP-Fc was directly immobilised and monomeric hCD47-CD4d3+4 passed over it. As shown in FIG. 5A hCD47-CD4d3+4 bound specifically to hSIRP-Fc in a dose dependent manner. […] The apparent rate constants were calculated as koff=1.3 s⁻¹ for the higher level of hSIRP-Fc and koff=2.1 s⁻¹ for the lower level (FIG. 5C). […]

[3] = target: T2, hSIRP-Fc (extracellular region of human …); test: BIAcore, 37° C; apparent rate constant, hSIRP-Fc at the higher level
Protocol: as §3, §4, §5

[4] = target: T2, hSIRP-Fc (extracellular region of human …); test: BIAcore equilibrium binding at 37° C, Scatchard analysis
Protocol: as §3, §4, §5

[5] = target: T2, hSIRP-Fc (extracellular region of human …); test: BIAcore equilibrium binding at 37° C, non linear curve fitting of the Langmuir isotherm; hSIRP-Fc immobilised (6525 RU), control subtracted
Protocol: as §1, §2

[6] = target: T2, hSIRP-Fc (extracellular region of human …); test: BIAcore, 37° C; 18.3 µM hCD47-CD4d3+4 over hSIRP-Fc at 6500 RU, exponential decay fitting
Protocol: as §1, §2

soluble rat CD4 = target: T1, soluble rat CD4; test: BIAcore, 25° C; soluble rat CD4 injected over V-SIRP-CD4d3+4 flowcell and control flowcell
Protocol: FIG. 6. The NH2-terminal V domain of SIRP binds CD47. Soluble rat CD4 and hCD47-CD4d3+4 were injected into flowcells with immobilised V-SIRP-Cd4d3+4 (solid line) or control rat CD4 (dashed line).
as §4
To localise the CD47 binding site on SIRP a construct containing only the NH₂-terminal V-like domain of hSIRP in frame with CD4d3+4 was made. V-SIRP-CD4d3+4 was immobilised in one flowcell via a CD4 mAb (OX68). The free OX68 in this flowcell and all the OX68 in the control flowcell was blocked with soluble rat CD4. Blocking was verified by repeating the injection of soluble rat CD4 (FIG. 6). Soluble hCD47-CD4d3+4 was then injected over both the flowcells. […]

Row | Binder | koff [1] [s⁻¹] | koff [2] [s⁻¹] | koff [3] [s⁻¹] | Kd [4] [µM] | Kd [5] [µM] | koff [6] [s⁻¹] | binding result (soluble rat CD4)
1 | hCD47-CD4d3+4 (single extracellular IgSF domain of human CD47 fused to rat CD4 domains 3+4) (ligand, human;rat, UniProt Q08722 19-136, looked up, extracellular domain;domain: CD4 domains 3+4; Used as a monomer in solution, or captured via OX68; also called soluble human CD47-CD4d3+4; soluble hCD47; not shown: biotinylation peptide of the CD4d3+4-biotin vector) QLLFNKTKSVEFTFCNDTVVIPCFVTNMEAQNTTEVYVKWKFKGRDIYTFDGALNKSTVPTDFSSAKIEVSQLLKGDASLKMDKSDAVSHTGNYTCEVTELTREGETIIELKYRVVSWSTSITAYKSEGESAEFSFPLNLGEESLQGELRWKAEKAPSSQSWITFSLKNQKVSVQKSTSNPKFQLSETLPLTLQIPQVSLQFAGSGNLTLTLDRGILYQEVNLVVMKVTQPDSNTLTCEVMGPTSPKMRLILKQENQEARVSRQEKVIQVQAPEAGVWQCLLSEGEEVKMDSKIQVLSKGLN | 2.1 | ≥ 2.1 | 1.3 | 7.6 | 8.5 | 1.6 | 
2 | V-SIRP-CD4d3+4 (NH2-terminal V-like domain of hSIRP in frame with rat CD4 domains 3+4) (receptor, human;rat, UniProt P78324 31-148, looked up, domain: NH2-terminal V-like domain;domain: CD4 domains 3+4; Captured on the chip via OX68; also called single SIRP V domain CD4d3+4 fusion protein) EEELQVIQPDKSVLVAAGETATLRCTATSLIPVGPIQWFRGAGPGRELIYNQKEGHFPRVTTVSDLTKRNNMDFSIRIGNITPADAGTYYCVKFRKGSPDDVEFKSGAGTELSVRAKPSTSITAYKSEGESAEFSFPLNLGEESLQGELRWKAEKAPSSQSWITFSLKNQKVSVQKSTSNPKFQLSETLPLTLQIPQVSLQFAGSGNLTLTLDRGILYQEVNLVVMKVTQPDSNTLTCEVMGPTSPKMRLILKQENQEARVSRQEKVIQVQAPEAGVWQCLLSEGEEVKMDSKIQVLSKGLN |  |  |  |  |  |  | no binding

From patent US20030026803A1 (published 2003)
